Reference: US20150126713A1

Columns and labels:
[1] = target: human IL-23R on Kit-225 cells (human) (UniProt Q5VWK5); experiment: cell-based or functional assay
[2] = target: monkey IL-23R-mouse Fc fusion protein (monkey; mouse); experiment: antigen ELISA, monkey IL-23R-mouse Fc immobilized, HRP anti-human IgG, chemiluminescence
[3] = target: human IL-23R-mouse Fc fusion protein (human; mouse) (UniProt Q5VWK5); experiment: antigen ELISA, human IL-23R-mouse Fc immobilized, HRP anti-human IgG, chemiluminescence
Sequence of human IL-23R-mouse Fc fusion protein (human; mouse) (Q5VWK5 24-353 L310P limits assumed): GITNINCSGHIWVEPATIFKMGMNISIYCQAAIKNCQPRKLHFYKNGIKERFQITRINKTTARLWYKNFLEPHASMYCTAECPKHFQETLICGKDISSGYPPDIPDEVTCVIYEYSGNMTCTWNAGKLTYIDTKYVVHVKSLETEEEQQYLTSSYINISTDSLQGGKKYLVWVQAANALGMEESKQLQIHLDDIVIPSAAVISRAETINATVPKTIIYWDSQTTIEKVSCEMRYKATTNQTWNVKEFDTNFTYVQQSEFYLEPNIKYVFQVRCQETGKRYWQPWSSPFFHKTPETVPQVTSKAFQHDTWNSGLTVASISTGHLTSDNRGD

Sequence of human IL-23R on Kit-225 cells (human) (Q5VWK5 24-629 L310P limits assumed): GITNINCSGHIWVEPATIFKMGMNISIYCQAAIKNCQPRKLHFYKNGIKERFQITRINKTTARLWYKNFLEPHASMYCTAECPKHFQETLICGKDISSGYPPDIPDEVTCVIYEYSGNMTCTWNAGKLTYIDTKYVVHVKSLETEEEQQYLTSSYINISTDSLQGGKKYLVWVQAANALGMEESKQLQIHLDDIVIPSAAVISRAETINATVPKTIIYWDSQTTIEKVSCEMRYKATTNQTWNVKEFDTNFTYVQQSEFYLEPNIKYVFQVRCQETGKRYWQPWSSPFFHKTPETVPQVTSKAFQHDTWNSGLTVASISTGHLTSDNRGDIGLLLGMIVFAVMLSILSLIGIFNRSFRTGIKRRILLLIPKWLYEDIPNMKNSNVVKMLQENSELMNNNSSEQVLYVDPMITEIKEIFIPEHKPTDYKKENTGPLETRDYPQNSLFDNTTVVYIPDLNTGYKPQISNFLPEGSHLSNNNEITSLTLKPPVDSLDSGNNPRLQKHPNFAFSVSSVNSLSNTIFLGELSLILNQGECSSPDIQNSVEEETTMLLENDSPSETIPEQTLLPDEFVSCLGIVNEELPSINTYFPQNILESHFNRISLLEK

B1: hum20D7 (antibody, from another filing, V domains shown)
VH: QVQLVQSGAEVKKPGASVKVSCKASGYTFTNYAMNWVRQAPGQGLEWMGWINTYTGEPTYSDDFKGRVTFTLDTSTSTAYMELRSLRSDDTAVYYCARGGGYDEDYFDYWGQGTLVTVSS
VL: DIVMTQSPLSLPVTPGEPASISCKSSQSLFNTINQKTYLAWYLQKPGQSPQLLIYFASTRESGVPDRFSGSGSGTDFTLKISRVEAEDVGVYYCQQHYDTPWTFGQGTKVEIKR
What does the source list for B1?
Human IL-23-inducible Kit-225 cell proliferation inhibitory activity, IC50 [1]: 0.0276 µg/mL; EC50 [2]: > 10 µg/mL; EC50 [3]: 0.0452 µg/mL
